In article PMC10138300, “Molecular Recognition of Methacryllysine and Crotonyllysine by the AF9 YEATS Domain” (International Journal of Molecular Sciences, 2023):
Starred links: 1 amine or outer side, 2 acyl side, 3 side chain; linkers in the order of their positions; H or OH if unused. Non-standard residues stand in square brackets, D forms with d. No end group written: not given here. Kmea = methacryllysine, C=C(C)C(=O)NCCCC[C@H](N[*:1])C(=O)[*:2]; Kcr = crotonyllysine, C/C=C/C(=O)NCCCC[C@H](N[*:1])C(=O)[*:2]

B1: histone H3K18cr peptide (residues 10–25) (peptide)
peptide: STGGKAPRKQLATKAA
modifications: crotonyllysine (Kcr) at K18
notes: histone H3, residues 10-25; the stretch is the same in H3.1, H3.2 and H3.3; Made on Rink amide resin, so the C-terminus is probably an amide; last residue coupled as N-alpha-Boc amino acid, so the N-terminus is probably free; also called H3K18Kcr; source: synthetic peptide (Fmoc-SPPS on Rink amide resin, RP-HPLC purified)
B2: histone H3K9cr peptide (residues 3–15) (peptide)
peptide: TKQTAR[Kcr]STGGKA-NH2
notes: histone H3, residues 3-15; the stretch is the same in H3.1, H3.2 and H3.3; Made on Rink amide resin, so the C-terminus is probably an amide; last residue coupled as N-alpha-Boc amino acid, so the N-terminus is probably free; source: synthetic peptide (Fmoc-SPPS on Rink amide resin, RP-HPLC purified)
B3: histone H3K9mea peptide (residues 3–15) (peptide)
peptide: TKQTAR[Kmea]STGGKA-NH2
notes: as for B2
B4: histone H3K18mea peptide (residues 10–25) (peptide)
peptide: STGGKAPRKQLATKAA
modifications: methacryllysine (Kmea) at K18
notes: histone H3, residues 10-25; the stretch is the same in H3.1, H3.2 and H3.3; Made on Rink amide resin, so the C-terminus is probably an amide; last residue coupled as N-alpha-Boc amino acid, so the N-terminus is probably free; source: synthetic peptide (Fmoc-SPPS on Rink amide resin, RP-HPLC purified)

Columns and labels:
[1] = target: T1, human AF9 YEATS domain (residues 1–138) (Homo sapiens, UniProt P42568); experiment: ITC binding assay with AF9 YEATS domain; details: MicroCal PEAQ-ITC, 50 mM NaH2PO4, 500 mM NaCl, 2 mM EDTA, 2 mM β-ME, H3 peptides 1.1–2.7 mM titrated into AF9 YEATS 94–205 μM, One Set of Sites model, n = 3, errors as standard error (SE)
T1 construct: containing the cloned AF9 YEATS gene (amino acids 1–138) with an N-terminal 6xHis tag; 6xHis (N); made in house; host or cells: E. coli Rosetta 2(DE3)pLysS
T1 sequence (P42568 1-138): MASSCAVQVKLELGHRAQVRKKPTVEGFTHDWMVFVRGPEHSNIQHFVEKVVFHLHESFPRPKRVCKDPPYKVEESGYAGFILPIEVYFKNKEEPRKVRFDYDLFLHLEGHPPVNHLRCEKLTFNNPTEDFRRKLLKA
Description: The plasmid was transformed into Rosetta 2(DE3)pLysS E. coli cells (Novagen, Darmstadt, Germany) by the heat-shock method. Transformed cells were cultivated at 37 °C in TB medium supplemented with 50 μg/mL kanamycin and 35 μg/mL chloramphenicol. The cultivation continued until the culture’s OD600 reached 1.5. Then the culture was cooled down to room temperature (RT), and the protein expression was induced by adding isopropyl β-d-1-thiogalactopyranoside (IPTG) at a final concentration of 0.3 mM. The cultivation was continued for 18 h at RT. After the protein expression was completed, the cells were harvested by centrifuging the culture at 6500 rpm at 4 °C for 15 min. The pellets were then resuspended in cell lysis buffer containing 50 mM Tris, 500 mM NaCl, 30 mM imidazole, at pH 7.4, 1 mM phenylmethylsulfonyl fluoride (PMSF), 2 mM β-mercaptaethanol (β-ME), and 20 μg/mL DNase I. Subsequently, the cells were lysed using the One Shot Cell Disrupter (Constant Systems LTD, Daventry, UK), and the cell debris was settled down by centrifuging the lysate at 19500 rpm at 4 °C for 20 min. […]
ITC experiments were performed using a MicroCal PEAQ-ITC instrument (Malvern Panalytical, Malvern, UK). […] The concentrations of all histone peptides and proteins were measured by UV analysis on a Thermo-Fisher Nanodrop spectrophotometer in buffer using λmax at 215 nm and 280 nm, respectively. […]

[2] = target: T2, recombinant human AF9 YEATS domain (residues 1–138) (human, UniProt P42568 1-138); experiment: ITC; H3 peptides (1.1–2.7 mM) titrated into AF9 YEATS (94–205 μM), 19 injections; 50 mM NaH2PO4, 500 mM NaCl, 2 mM EDTA, 2 mM β-ME; One Set of Sites model; triplicates; details: both partners purified
T2 construct: AF9 (MLLT3), human, YEATS domain, amino acids 1-138, in pET28b(+); Plasmid was a gift from Prof; No step that removes the tag is described; the final SEC product is called 6xHis AF9 YEATS, so the tag was probably still on in ITC; also called 6xHis-AF9 YEATS; source: E. coli Rosetta 2(DE3)pLysS, purified (HisTrap Ni-NTA, Superdex 75 SEC)
T2 sequence (looked up): T1 sequence (P42568 1-138)

Row | Molecule | N (Stoichiometry) [1] | Kd [2] [µM] | stoichiometry N [2]
1 | C/C=C/C(=O)NCCCC[C@H](NC(=O)[C@H](CCCNC(=N)N)NC(=O)[C@H](C)NC(=O)[C@@H](NC(=O)[C@H](CCC(N)=O)NC(=O)[C@H](CCCCN)NC(=O)[C@@H](N)[C@@H](C)O)[C@@H](C)O)C(=O)N[C@@H](CO)C(=O)N[C@H](C(=O)NCC(=O)NCC(=O)N[C@@H](CCCCN)C(=O)N[C@@H](C)C(N)=O)[C@@H](C)O [H3K9cr] | 0.98 ± 0.01 | – | –
2 | B1 | – | 21 | –
3 | B2 | – | 11 | 0.98
4 | B3 | – | 59 | 1.02
5 | B4 | – | 114 | –
